PMC7855293 (Nature structural & molecular biology, 2020)
Like-named read-outs stand apart in the source and are kept apart here.

Assays:
Test in all cases: cryo-EM structure
[1] = biological target: FAP385 (Chlamydomonas reinhardtii)
[2] = biological target: RSP16 (Chlamydomonas reinhardtii)
[3] = biological target: LC8 (RSP22) (Chlamydomonas reinhardtii)
cryo-EM structure [4] = biological target: the molecule itself
cryo-EM structure [5] = biological target: the molecule itself; remark: listed apart in the source

FAP385 (natural protein)
stoichiometry N [1]: 2

RSP16 (natural protein)
stoichiometry N [2]: 2

LC8 (RSP22) (natural protein)
stoichiometry N [3]: 2

B1: RSP9 (natural protein, Chlamydomonas reinhardtii, UniProt Q27YU5 1-269, looked up)
chain: MVQLEPNITLVLKHLASCGAVVSAEQQAALDHSIPIKRIEAGLRSLTLWGRLTTLNGKDYLVAEGYNVASSKEGAAVYETKYFYSQDGARWSDLQPVDSETATRCARIKGMLSGDPAKNYELEEKDPNAPEPSPEAEEEVKPLVFQIPELAVLRCRVDAIATATSVIPTDSTILNAASQVVPNRLFAGAAYPEKLESYQHRFSLPGSGVTLSQDLRGTWAVQYDAFKGVAQVRSLLFPGYFFYYAANELTWGSLYVGDGLRNNDLIFML
stoichiometry N (cryo-EM structure [4]): 2

B2: DRC4 (natural protein, Chlamydomonas reinhardtii, UniProt Q7XJ96 1-471, looked up)
chain: MAPKKKGTKKESKKDAVATGDIEGASVEELNQKIGTLEKEKNKEEEYRNYMQLERDKINAFWEITKKDLEDRRAELRNKDREMEEMEERHQVEIKVYKQKVKHLLYEHQNNITTLKSDGELALKLQQDEYRKREGDLGKDKRNLKLELKEQELAHQDIIRQLKLEHAKEITKLRQEFEQQAKDLQSKYEKKMKMLRDDMELRRKQEIHEIEERKNTHINELMKKHERAFAEIKNYYNDITHNNLDLIKTLKEDVAEMKRREAANEKLMYEIAQDNKKLSEPLSRALKEVELLRQQLANYDKDKLSLAQTKARLLNAERQIKNLEWENEVLSQRFSKVQTERDELYGKFEASIYDVQQKTGLKSALLEKKVEALGEALEMKEAQLAEVLTAANLDPGTLAAINQRLEEVLDNKNQIIKALQYDVAKVSKAHNDLIRVYEAKLTEFGIPVDELGFRPLVTNTSTGPAGLVVGA
stoichiometry N (cryo-EM structure [5]): 2

B3: p28 (natural protein, Chlamydomonas reinhardtii, UniProt Q39604 1-253, looked up)
chain: MIPPLSSLVRYDNPVLVSTSKDKGKGAKGTPGKKGALPPVEQKPGLTQTEDILNSILPPREWTEDGQLWVQYVSSTPATRLDVINLQEKLDQQLQQRQARETGICPIREELYAQTFDELIRQVTINCAERGLLLLRVRDEMRMTIAAYQTLYESAVAFGIRKALQTEQGKSEMESRITQLEGDVKDLERQVQEWKFKCEAIEKRESERREVEAKKHKDEVAYLENYAKQLKQQLETFLVPAKKGAPGAPAAAT
stoichiometry N (cryo-EM structure [5]): 2
